According to article PMC2756588:

T1: Cyk3, Q07533
T1 sequence (Q07533 1-83, looked up): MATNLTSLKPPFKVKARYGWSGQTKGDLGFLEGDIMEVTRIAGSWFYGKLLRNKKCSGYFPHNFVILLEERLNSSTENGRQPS

T2: Pex13, P80667
T2 sequence (P80667 295-386, looked up): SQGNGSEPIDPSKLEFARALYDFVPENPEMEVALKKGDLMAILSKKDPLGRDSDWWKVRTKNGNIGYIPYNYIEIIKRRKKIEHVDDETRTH

T3: Sla1-3, P32790
T3 sequence (P32790 344-424, looked up): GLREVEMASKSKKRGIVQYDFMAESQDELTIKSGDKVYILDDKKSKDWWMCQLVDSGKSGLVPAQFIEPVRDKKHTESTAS

T4: Lsb3, P43603
T4 sequence (P43603 385-451, looked up): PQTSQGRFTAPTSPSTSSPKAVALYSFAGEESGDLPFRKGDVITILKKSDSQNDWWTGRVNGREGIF

T5: Nbp2, Q12163
T5 sequence (Q12163 103-180, looked up): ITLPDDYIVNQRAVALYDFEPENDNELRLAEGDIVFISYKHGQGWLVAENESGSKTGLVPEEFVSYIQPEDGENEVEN

T6: Cdc25, P04821
T6 sequence (P04821 50-136, looked up): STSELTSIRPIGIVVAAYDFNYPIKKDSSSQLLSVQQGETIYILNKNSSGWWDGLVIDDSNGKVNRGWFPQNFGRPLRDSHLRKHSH

T7: Boi1, P38041
T7 sequence (P38041 1-86, looked up): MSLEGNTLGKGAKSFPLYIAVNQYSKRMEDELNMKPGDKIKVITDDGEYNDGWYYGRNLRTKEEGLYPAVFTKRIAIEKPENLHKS

T8: Bzz1-1, P38822
T8 sequence (P38822 478-572, looked up): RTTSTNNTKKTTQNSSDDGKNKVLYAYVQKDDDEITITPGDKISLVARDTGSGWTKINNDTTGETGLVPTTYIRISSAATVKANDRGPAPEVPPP

T9: Abp1, P15891
T9 sequence (P15891 535-592, looked up): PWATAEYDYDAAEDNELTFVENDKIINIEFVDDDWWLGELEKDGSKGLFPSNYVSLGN

T10: Boi2, P39969
T10 sequence (P39969 32-116, looked up): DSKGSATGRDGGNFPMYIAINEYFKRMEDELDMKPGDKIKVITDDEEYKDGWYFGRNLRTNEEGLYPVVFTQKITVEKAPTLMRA

T11: Lsb1, P53281
T11 sequence (P53281 45-122, looked up): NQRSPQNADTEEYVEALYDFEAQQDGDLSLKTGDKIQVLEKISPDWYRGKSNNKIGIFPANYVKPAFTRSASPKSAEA

T12: Hse1, P38753
T12 sequence (P38753 208-285, looked up): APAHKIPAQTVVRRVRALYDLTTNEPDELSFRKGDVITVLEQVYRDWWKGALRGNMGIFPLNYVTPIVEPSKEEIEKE

T13: Bzz1-2, P38822
T13 sequence (P38822 568-633, looked up): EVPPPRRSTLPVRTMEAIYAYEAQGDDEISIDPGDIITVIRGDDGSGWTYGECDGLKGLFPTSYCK

T14: Pin3, Q06449
T14 sequence (Q06449 53-122, looked up): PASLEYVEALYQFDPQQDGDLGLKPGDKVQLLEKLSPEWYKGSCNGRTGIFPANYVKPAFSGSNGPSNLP

T15: Bud14, P27637
T15 sequence (P27637 247-328, looked up): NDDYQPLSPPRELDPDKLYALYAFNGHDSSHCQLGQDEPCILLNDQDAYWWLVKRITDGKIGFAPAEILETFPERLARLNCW

T16: Myo5, Q04439
T16 sequence (Q04439 1072-1160, looked up): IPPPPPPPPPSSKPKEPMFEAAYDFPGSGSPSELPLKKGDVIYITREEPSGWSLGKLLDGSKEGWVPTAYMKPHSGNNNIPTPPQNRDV

T17: Lsb4, P32793
T17 sequence (P32793 402-468, looked up): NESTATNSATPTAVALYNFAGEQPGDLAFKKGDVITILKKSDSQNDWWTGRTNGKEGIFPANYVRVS

T18: Hof1, Q05080
T18 sequence (Q05080 590-669, looked up): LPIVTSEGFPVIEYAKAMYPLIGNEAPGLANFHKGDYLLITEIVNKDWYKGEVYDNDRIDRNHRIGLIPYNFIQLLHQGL

T19: Fus1, P11710
T19 sequence (P11710 432-512, looked up): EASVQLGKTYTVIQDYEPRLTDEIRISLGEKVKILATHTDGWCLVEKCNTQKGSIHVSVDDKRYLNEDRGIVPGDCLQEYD

T20: Bbc1, P47068
T20 sequence (P47068 1-78, looked up): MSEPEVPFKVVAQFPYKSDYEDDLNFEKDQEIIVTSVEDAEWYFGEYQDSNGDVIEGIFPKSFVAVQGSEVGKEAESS

T21: Sla1-2, P32790
T21 sequence (P32790 60-140, looked up): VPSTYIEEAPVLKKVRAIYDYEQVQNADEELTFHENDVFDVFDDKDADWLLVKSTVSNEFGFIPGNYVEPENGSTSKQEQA


Molecular target: T1, Cyk3, Q07533
Experiment: SPOT array
Conditions: median of control spots 1451

| SPOT intensity | Binder |
| --- | --- |
| 0 | LKHGWKPLRPIKLIS |
| 1 | PKRRAPPPVPKKPSS |
| 2 | RPKRRAPPPVPKKPS |

Molecular target: T2, Pex13, P80667
Experiment: SPOT array
Conditions: median of control spots 1341

| SPOT intensity | Binder |
| --- | --- |
| 17 | LKHGWKPLRPIKLIS |
| 41 | PKRRAPPPVPKKPSS |
| 42 | RPKRRAPPPVPKKPS |

Molecular target: T3, Sla1-3, P32790
Experiment: SPOT array
Conditions: median of control spots 5475

| SPOT intensity | Binder |
| --- | --- |
| 16 | LKHGWKPLRPIKLIS |
| 3500 | PKRRAPPPVPKKPSS |
| 2980 | RPKRRAPPPVPKKPS |

Molecular target: T4, Lsb3, P43603
Experiment: SPOT array
Conditions: median of control spots 406

| SPOT intensity | Binder |
| --- | --- |
| 0 | LKHGWKPLRPIKLIS |
| 346 | PKRRAPPPVPKKPSS |
| 298 | RPKRRAPPPVPKKPS |

Molecular target: T5, Nbp2, Q12163
Experiment: SPOT array
Conditions: median of control spots 357

| SPOT intensity | Binder |
| --- | --- |
| 2 | LKHGWKPLRPIKLIS |
| 650 | PKRRAPPPVPKKPSS |
| 887 | RPKRRAPPPVPKKPS |

Molecular target: T6, Cdc25, P04821
Experiment: SPOT array
Conditions: median of control spots 969

| SPOT intensity | Binder |
| --- | --- |
| 14 | LKHGWKPLRPIKLIS |
| 3 | PKRRAPPPVPKKPSS |
| 12 | RPKRRAPPPVPKKPS |

Molecular target: T7, Boi1, P38041
Experiment: SPOT array
Conditions: median of control spots 1162

| SPOT intensity | Binder |
| --- | --- |
| 0 | LKHGWKPLRPIKLIS |
| 2 | PKRRAPPPVPKKPSS |
| 3 | RPKRRAPPPVPKKPS |

Molecular target: T8, Bzz1-1, P38822
Experiment: SPOT array
Conditions: median of control spots 4446

| SPOT intensity | Binder |
| --- | --- |
| 0 | LKHGWKPLRPIKLIS |
| 650 | PKRRAPPPVPKKPSS |
| 480 | RPKRRAPPPVPKKPS |

Molecular target: T9, Abp1, P15891
Experiment: SPOT array
Conditions: median of control spots 935

| SPOT intensity | Binder |
| --- | --- |
| 75 | LKHGWKPLRPIKLIS |
| 648 | PKRRAPPPVPKKPSS |
| 555 | RPKRRAPPPVPKKPS |

Molecular target: GST
Experiment: SPOT array
Conditions: median of control spots 978

| SPOT intensity | Binder |
| --- | --- |
| 0 | LKHGWKPLRPIKLIS |
| 2 | PKRRAPPPVPKKPSS |
| 6 | RPKRRAPPPVPKKPS |

Molecular target: Rvs167, P39743
Experiment: SPOT array
Conditions: median of control spots 2707

Rvs167, P39743, sequence (P39743 419-482): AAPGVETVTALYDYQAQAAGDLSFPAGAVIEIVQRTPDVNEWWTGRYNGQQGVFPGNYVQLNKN

| SPOT intensity | Binder |
| --- | --- |
| 0 | LKHGWKPLRPIKLIS |
| 44 | PKRRAPPPVPKKPSS |
| 99 | RPKRRAPPPVPKKPS |

Molecular target: T10, Boi2, P39969
Experiment: SPOT array
Conditions: median of control spots 1161

| SPOT intensity | Binder |
| --- | --- |
| 0 | LKHGWKPLRPIKLIS |
| 1 | PKRRAPPPVPKKPSS |
| 1 | RPKRRAPPPVPKKPS |

Molecular target: T11, Lsb1, P53281
Experiment: SPOT array
Conditions: median of control spots 388

| SPOT intensity | Binder |
| --- | --- |
| 0 | LKHGWKPLRPIKLIS |
| 1740 | PKRRAPPPVPKKPSS |
| 1450 | RPKRRAPPPVPKKPS |

Molecular target: T12, Hse1, P38753
Experiment: SPOT array
Conditions: median of control spots 1727

| SPOT intensity | Binder |
| --- | --- |
| 147 | LKHGWKPLRPIKLIS |
| 368 | PKRRAPPPVPKKPSS |
| 310 | RPKRRAPPPVPKKPS |

Molecular target: T13, Bzz1-2, P38822
Experiment: SPOT array
Conditions: median of control spots 4538

| SPOT intensity | Binder |
| --- | --- |
| 1 | LKHGWKPLRPIKLIS |
| 3420 | PKRRAPPPVPKKPSS |
| 2580 | RPKRRAPPPVPKKPS |

Molecular target: Bem1-2, P29366
Experiment: SPOT array
Conditions: median of control spots 4347

Bem1-2, P29366, sequence (P29366 139-227): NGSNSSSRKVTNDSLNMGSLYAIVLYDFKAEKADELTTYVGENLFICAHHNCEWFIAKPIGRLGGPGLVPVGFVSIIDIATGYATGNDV

| SPOT intensity | Binder |
| --- | --- |
| 7 | LKHGWKPLRPIKLIS |
| 389 | PKRRAPPPVPKKPSS |
| 497 | RPKRRAPPPVPKKPS |

Molecular target: T14, Pin3, Q06449
Experiment: SPOT array
Conditions: median of control spots 2171

| SPOT intensity | Binder |
| --- | --- |
| 3 | LKHGWKPLRPIKLIS |
| 11 | PKRRAPPPVPKKPSS |
| 9 | RPKRRAPPPVPKKPS |

Molecular target: T15, Bud14, P27637
Experiment: SPOT array
Conditions: median of control spots 956

| SPOT intensity | Binder |
| --- | --- |
| 8 | LKHGWKPLRPIKLIS |
| 1 | PKRRAPPPVPKKPSS |
| 6 | RPKRRAPPPVPKKPS |

Molecular target: T16, Myo5, Q04439
Experiment: SPOT array
Conditions: median of control spots 471

| SPOT intensity | Binder |
| --- | --- |
| 0 | LKHGWKPLRPIKLIS |
| 119 | PKRRAPPPVPKKPSS |
| 232 | RPKRRAPPPVPKKPS |

Molecular target: T17, Lsb4, P32793
Experiment: SPOT array
Conditions: median of control spots 397

| SPOT intensity | Binder |
| --- | --- |
| 4 | LKHGWKPLRPIKLIS |
| 182 | PKRRAPPPVPKKPSS |
| 129 | RPKRRAPPPVPKKPS |

Molecular target: Sho1, P40073
Experiment: SPOT array
Conditions: median of control spots 1148

Sho1, P40073, sequence (P40073 287-367): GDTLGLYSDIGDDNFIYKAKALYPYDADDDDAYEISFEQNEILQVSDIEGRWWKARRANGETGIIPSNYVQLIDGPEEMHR

| SPOT intensity | Binder |
| --- | --- |
| 55 | LKHGWKPLRPIKLIS |
| 399 | PKRRAPPPVPKKPSS |
| 487 | RPKRRAPPPVPKKPS |

Molecular target: T18, Hof1, Q05080
Experiment: SPOT array
Conditions: median of control spots 4086

| SPOT intensity | Binder |
| --- | --- |
| 0 | LKHGWKPLRPIKLIS |
| 8 | PKRRAPPPVPKKPSS |
| 2 | RPKRRAPPPVPKKPS |

Molecular target: Bem1-1, P29366
Experiment: SPOT array
Conditions: median of control spots 4282

Bem1-1, P29366, sequence (P29366 55-141): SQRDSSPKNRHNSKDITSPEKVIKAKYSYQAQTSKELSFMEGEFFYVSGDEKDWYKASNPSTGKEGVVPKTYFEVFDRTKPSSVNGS

| SPOT intensity | Binder |
| --- | --- |
| 0 | LKHGWKPLRPIKLIS |
| 0 | PKRRAPPPVPKKPSS |
| 0 | RPKRRAPPPVPKKPS |

Molecular target: T19, Fus1, P11710
Experiment: SPOT array
Conditions: median of control spots 1200

| SPOT intensity | Binder |
| --- | --- |
| 4 | LKHGWKPLRPIKLIS |
| 6 | PKRRAPPPVPKKPSS |
| 6 | RPKRRAPPPVPKKPS |

Molecular target: T20, Bbc1, P47068
Experiment: SPOT array
Conditions: median of control spots 796

| SPOT intensity | Binder |
| --- | --- |
| 14 | LKHGWKPLRPIKLIS |
| 354 | PKRRAPPPVPKKPSS |
| 487 | RPKRRAPPPVPKKPS |

Molecular target: Myo3, P36006
Experiment: SPOT array
Conditions: median of control spots 468

| SPOT intensity | Binder |
| --- | --- |
| 0 | LKHGWKPLRPIKLIS |
| 342 | PKRRAPPPVPKKPSS |
| 491 | RPKRRAPPPVPKKPS |

Molecular target: T21, Sla1-2, P32790
Experiment: SPOT array
Conditions: median of control spots 712

| SPOT intensity | Binder |
| --- | --- |
| 0 | LKHGWKPLRPIKLIS |
| 0 | PKRRAPPPVPKKPSS |
| 2 | RPKRRAPPPVPKKPS |
